Measured values reported in the DeepSol protein solubility set.

Assay: soluble on expression in E. coli; label from the status in PepcDB or PDB records

Soluble on expression in E. coli, not soluble:
MGSDKIHHHHHHMLTQDQDQKQRNWKPIIKAFEAVLGTNGVVQRREELITYECDGLTSYRQRPAVAVLPRTTEQVAAVVKICNQYAVPFIARGSGTGLSGGALPSEDSVLIVTSLMRQILNVDLDNQRIVVQPGVINSWVTQTVSGAGFYYAPDPSSQIICSIGGNVAENSGGVHCLKYGVTTNHVLGLKIVTPEGEIVDLGGQIPEAPGYDLTGIFVGSEGTLGIATEITLRILKSAESICVLLADFTSVEAAGATVSDIISAGIIPGGMEMMDNVSINAVEDVVATNCYPRDATAILLVEIDGLDVEVAVNKQRVTDICQQNGARSVTSASDPETRLKLWKGRKAAFAAAGHLSPDYYVQDGVIPRTQLPYVLQEIEALSQKFGYPIANVFHAGDGNLHPLILFDNSISGALEKVEELGGEILKLCVRVGGSISGEHGIGADKKCYMPDMFSDVDLETMQWIRQVFNPQGLANPGKIFPTPRTCGEAANAIKNQHFEGVERF, MGSDKIHHHHHHMLTTRKALYYLDKGKTKEAIHLLETCWNQKVTAENKRDIFTATVLLSDVLYQSGERFPEIYQKLMSILEEMQDLEAVDFEREKAKQIFAELDEYFSEVGTFFQGHSLAELWLKFDSENDYKDVYPTPQRVAAIEAELGYKLPKSYIYLMRHTQNGGIVSTGSVPTTEPSSWSENCVAITGIMGIGDCGVSTLNGMHNTNFWTEEWGYPDVGLAIADCPSAGHDMVFLDYRNCGKTGEPAVVHIDQEGDYKILKLADNFEEFILSLYREEY, MGSDKIHHHHHHMLYPVKLLKDLVQIKTANPPGSEYESISFYLKDLFNDLGFQIQLIEIPEEYMDKYYIYSPSHKGNKRIIVIAKNSPNPILHFNFHYDVVPPGDGWLTNPFELKVVDNKAYGRGTSDMKGSIVSLYLALSRFNDLPIEIVFVPDEESGGIGTKYLTEEIRIAPSTAIFGEPSFPNVYIGHLGIVRGIIKIFGKQAHASNPKDGINAFLLASKLALKLQEKLGNEIVNLGGYTLNPTNNDGIVPGFFAFSYYRAIPPHDNRTPEFDKNVIDTTAREVGIEYNFEIKSFISGSVSNPDSSVAKAFKFCITSTLNVVPKELISNIRYDAVFYKNLDSINFGPGSLDQAHVPNEYVELDNIEKTIVIYECVMKRIYFNNYR, MGSDKIHHHHHHMMEGKDDADLFADLGLSESIASIPSYTFIRDGLNRIFASSNNIWNVLIGTRLTPPKPLSDYDLVHIHNPVPLAGMVSVALHCRIKGIPYCVTTHGISKVPKIPEELGLSRGQRIVFNHGFLRAYKNVLSNATHLFALSEGDQDTITEWFSDQSVSVLPNGVDLNVSPEAPEVDTKVDLPDKPVLLFVGRIMASKGVDDLLEAFSLLEHDCKLIIVGPMRDEHFKDQIHTLSDDVEYRGYVEQAELDALYRRADLFVFPTRSDVFPLVTLEAMAAGTPVVSTTVGGLPEQIPDQVGRLVPPKEPKTFAAAVDGMLSNEQLRTEMGRAGKSLVEERYSWEAVAKAAVTEYYRIVN, MGSDKIHHHHHHMMELINNRGMRDWMIFIKVAEVGNLSRAARELDISISAVSKSLSRLENSIEVTLLRRDSHHLELTGAGQTAYASMKRITSSFQSLLDELRNPDKIIRGSIKFSAPAIVCEFLANKWIWEFTASYPDTKIYLDSRERSDFFSKSLEFDELVFKSGIIESEDLVYRKISPLKLVLCASPKYIRKYGRISHPGDLENHIIVGLHNHGLSGPLTLFRQDESYTISGAVNVHLSSNNLLSVLNLVLEGKGINLMTPAWLATKYLKNNELEIILPEWRVPDLPIYLVWRHRQYYSPLFQRFLSFIEDKWNNRPQIDFLNDD, MGSDKIHHHHHHMMFGKSCQVMVKPTGSVCNLDCKYCFYLEKEKLYPDRKNHYKMSEETLELFIRQQIAAQDIDEVIFAWQGGEPTLMGIPFYRKAVEFQQRYCGGKTIVNTFQTNGILINDDWATFFREHDFLVGVSIDGDAALHDEWRVTRSGKPTHEKVENAVRCLAQHDVEFNTLTVVNRTNMHHPVQVYRYLKSIGSRYMQFIPLVERCGENGLAQPQDKHIAMTPWSVDSLQFGQFLNAVFDIWIREDIGDIGIQLFEQTLAAWCGLPPQVCVFAPTCGSAFAMEMNGDVYNCDHFVYPQFKLGNIHQKTLRQMNQGEQNRQFGSDKQRSMAQECHRCQWKFACYGGCPKHRFLPSASGATNHNYLCAGYQAFFSHTATAMSAMRTLYEKGISPAEIKSIFV, MGSDKIHHHHHHMMGMKETVSNIVTSQAEKGGVKHVYYVACGGSYAAFYPAKAFLEKEAKALTVGLYNSGEFINNPPVALGENAVVVVASHKGNTPETIKAAEIARQHGAPVIGLTWIMDSPLVAHCDYVETYTFGDGKDIAGEKTMKGLLSAVELLQQTEGYAHYDDFQDGVSKINRIVWRACEQVAERAQAFAQEYKDDKVIYTVASGAGYGAAYLQSICIFMEMQWIHSACIHSGEFFHGPFEITDANTPFFFQFSEGNTRAVDERALNFLKKYGRRIEVVDAKELGLSTIKTTVIDYFNHSLFNNVYPVYNRALAEARQHPLTTRRYMWKVEY, MGSDKIHHHHHHMMIKDLKAHYQLLYAQSGDSPAAVQYPTHDSQVVRFSILSHGIDKTCNIIDLGCGLADMLPYLRQNGFTGKYLGCDFVPEFIELAKGKYGEDLNAKFMEFNILQDEIPTGYDYVLISGIFNNKIKNNQEFIELALKESMAKVNIGVVFNALSDYVQYQDETLFYISPLSLFDYCKRNITPYVTLKHDYLTKPGGFPYEFTMSLRHKEAS, MGSDKIHHHHHHMMKTELHFKKSLLVSAVALATFALAGCANTAPQGKYVDGVHHVSGKGKKSDITLEVKVEQGNITQVKTLSHKETESLYLNAERLLPEIVSHNGHEGIDAISGATYSSNGILKAINDLPRIDGTKPEYQSVGARSQTGDDDFKLKWSIQPRLGLVKGDYYFEEARFRQGHMGSMLVVVDSNNLQDVILAEFNESGRPNYYTRLYQNVPKRMSEYNFSMGKKKGTAWVQSALTMEKLMMEKDQLTFELNPNYDPKLGNQLTEPNRLKYQGIDIVAGASNSIQQSMIPLTAKIHNRIQAGASDALFYQQAEKLLDEKGRWTGVTAMLRLVVDKNSHKITHAHYDEIFADEKKDIQDASLKAFYRQSKYDSINYVEPARIGFNVMIDALSLHLKEGGSLFNINDLPAAGDTGSYAQTGFTKRSDAWDNYLRLAGILYKQMRADGVINEHALPAQ, MGSDKIHHHHHHMMQLQVNATEIKTVYEQQLFNGKNFHVFIYNKTESVTGLHQHDYYEFTLVLTGRYYQEINGKRVLLERGDFVFIPVGSNHQSFYEFGATRILNVGISKRFFEQHYLPLLPFCFVASQVYRANSTFLTYIETVIASLNFRGNGLDEFIEVVTFYIINRLRHYREEQVYDDIPQWLKATVEIMHDKTQFGEHALENMVRLSAKSQEYLTRATRRYYSKTPMQIINEIRINFAKKQLEMTNYSVTDIAYEAGYSSPSLFIKTFKKMTSFTPNSYRKRLTEINE, MGSDKIHHHHHHMMRRRLPSLIALRAFEAVGRTGSVRAAGDELAVSHTVVSRHLQNLQKFLGVALVRGEGRGVILTEAGVSFHAQISQAFDIIARATTAARPSSLPTLNIWCIPGIANRLLLSRLPELTGPPRNWEVNLQPTLTHPDLSRAEADAEIVYADVIDSRGPLMSEILVRPRVFPVASPAYLARYPAITSLEDLSQIALIHEESTMQWTRWFELAGLDDLPPLRGQRLWHAHLAIEAARLGQGVALANDVLVEEDLRSGALVEVITSSVYMETYQLVALKERWDDPAIVALRNWLKQVLAELE, MGSDKIHHHHHHMMTKTKADKYPQRVRNELRFRELTVLRVERAGAAFQRIVLGGEALEGFASHGFDDHTKLFFPEPGAAFTPPQVTEEGIDWGEGVRPATRDYTPLYDAERHELAYDFYIHDGGIASRWALEAKVGDKLVIGGPRGSLVVPEDYAWQLYVCDESGMPALRRRLLGLRQLPARPQVTAIVTIADASYKDYLADLDGFNIEWVVGHNPAFVAERLAQVKVPAEDYFIWLTGEGAVVKSLLARFEDESIDQQLVRSQAYWHSK, MGSDKIHHHHHHMNAPDTSLAGASTASTASYDSAADGYNFAYLDEQTKRMLRRALLKAVAVPGYQVPFASREMPLPFGWGTGGIQVTAAIIGRKDTLKVIDQGSDETTNAVNIRRFFARTTGVATTRRTVDATIIQTRHRIPETPLTERQILVYQVPMPEPLFRLEPRVAECRKLHALADYGLISVKLYEDIVHHGSIATTYDYPVIVNHRYLASPSPIPKFDNPKMHMNPALQLFGAGRERRIHAIPPYTPVRSLDFDDHPFEVQKWHHACALCGSTESFLDEMIVDDAGKRMFVCSDSDYCHERRGDADFDPPSRDAGKGEPA, MGSDKIHHHHHHMNEEEDAFSYLSKLGLTPYEIKVYKTLLIYGPNSATETAKLSKVPQPRVYDIFESLESKGAVEVSPGKRKIYRAVPIDNFIDRKLIEIRDYKKRIESYIEQQKKFKESNPYLWMIKNNFQIREKMKDVINEAENELIASLNYENIRYLKKYFIDAAKRGITVVIVAFPDAELDFLRTFPEDIVIRIRRGSASQVMIADRKHGLINVESTEDSEGYALYFDENELIHILNYYFYHTIWGPSDMFHDFPVRQNIKFSTAWLSCEAIDSFFKRSYSVSGIVTGYSATGQVKIEGTITGIDLIPGFKHTFFIKDNERVYSVGGKTARMEDIKLETLTMNVWIPNKQAISQKQ, MGSDKIHHHHHHMNEIAEVLPESMKNALSEIPEQQWLEIEEVRIRINRPVELIRRGQPVYLSYAGTAEDAHLILSRLSNYSMYTLEEELKKGYVTIRGGHRVGLAGRVITENGGVKGLRDIASFNIRIARQKLGIAEPLLPYLYQNSWLNTLIIGPPQTGKTTLLRDLARLSSTGKKNMLPVKTGIVDERSEIAGCLRGIPQHQFGQRIDVLDACPKAEGLMMMIRSMSPEVMIVDEIGRMEDTDALLEALHAGVSVIVSAHGWSISDLMKRPSLKRLWEERAFDRYLELSRAKGPGTVSQIYDKDGNVLSRTTGVKTC, MGSDKIHHHHHHMNEKTTTAQKGAPRARVSATRVRSASRTPHATTVNPADLTVHNHPLARRHYRVATAAIEGFVDLVEHCVRVLIPGALIYARPRMGKTHAIDYLALHLGRNRGDILVLRMSCEYHRTDYEGAFFSALLSAAGIRDPQPRFIADKRFALMRRINEQLQMRSGHIVVLFCDEAQRLSKHALEWLRDVHDQLAHHGVRLITFLVGQPQLMEQKAQYQLSGDEQIVARFMIEQLHFRGITGAVEAATCLASYDMTRYPEDTGSTFTAFFYPDAYAAGLRLEQSAAALWNGFVNAHKVAQLAGPIELHMDYFSRAVESVLLNGPQWDSAGLVLDSAYWERAVRESGYVAAQQTVQPEV, MGSDKIHHHHHHMNERRLLLTGGWILSMDPAVGDLRQGDILIEGDRIAAVAPRIEAPEAQRIDAAGMIVLPGFVDTHRHTWQSCVRHRYADIDPQIYFAEMLGATGAAFRPDDVYIGTLLGAVSALDSGITTMLDWSHVQNSPEHADAAVLGLRDAGIRGIFAHGWPLVEGASWMFDSQRGHPEDIRRLRERYFSSDDQLLTLAMAARGPEMACREVWLRDLRLARELGIRSSIHMGAYARNGTARGIAQMHEAGVLGDDLTFVHCCCSGEDEIAMMADAGVSASLGVHCELNAQGIGDLPLDRMLAVGIRPSLSGDTETKCSGDMFTQMRHAFAYYRSWMGGNHSRVANAPATLSMRDVLEFATVAGARANGLDHKVGSLTPGKQADIVMIRGDDLNLAPVSDAVGAVVLAAHPGNVDTVFVAGRTVKRHGRMTGVDVDMLRHRAAASQHYVLGLR, MGSDKIHHHHHHMNFILELLRREQGRQQKELEFSQLPYQQRVAQLKEQKLPLFFYKYHSLHSHNPNKPQEKWEHASDYLINSRFYLSRPANFNDPFDMRAYFTDSVPKEKKRYFLDQLLKIRTPQLTEKDRVLEVKKLLDNPEKLRTIHKLTLDEAVDSFGVSCLSTAPCNILMWSHYANHHRGIAFQFNFAIDIFSFKWLQPVSYSNDFPGIEYFERRDNKYSIALLTKHHGWEYEKEWRIVKPNGAGTYQDFNSKILTGVILGCRIDRKDEDKIRTMIEQRKEQGLSSVKLYKLRQHESRYKLVIKHVE
